Assays:
[1] = target: T1, RecQ4 427-1208 K843A/R844E/R848A (Homo sapiens, UniProt O94761 427-1208, K843A;R844E;R848A); test: fluorescence polarization; WT-like, low nM apparent Kd; 20 mM HEPES pH 8.0, 10 mM NaCl, 5% glycerol, 1 mM MgCl2, 0.5 mM TCEP, 0.5 nM Cy3-ssDNA; temperature not stated; conditions: protein: recombinant; tags: Trx-His6 removed by 3C protease; label: 5' Cy3
T1 sequence: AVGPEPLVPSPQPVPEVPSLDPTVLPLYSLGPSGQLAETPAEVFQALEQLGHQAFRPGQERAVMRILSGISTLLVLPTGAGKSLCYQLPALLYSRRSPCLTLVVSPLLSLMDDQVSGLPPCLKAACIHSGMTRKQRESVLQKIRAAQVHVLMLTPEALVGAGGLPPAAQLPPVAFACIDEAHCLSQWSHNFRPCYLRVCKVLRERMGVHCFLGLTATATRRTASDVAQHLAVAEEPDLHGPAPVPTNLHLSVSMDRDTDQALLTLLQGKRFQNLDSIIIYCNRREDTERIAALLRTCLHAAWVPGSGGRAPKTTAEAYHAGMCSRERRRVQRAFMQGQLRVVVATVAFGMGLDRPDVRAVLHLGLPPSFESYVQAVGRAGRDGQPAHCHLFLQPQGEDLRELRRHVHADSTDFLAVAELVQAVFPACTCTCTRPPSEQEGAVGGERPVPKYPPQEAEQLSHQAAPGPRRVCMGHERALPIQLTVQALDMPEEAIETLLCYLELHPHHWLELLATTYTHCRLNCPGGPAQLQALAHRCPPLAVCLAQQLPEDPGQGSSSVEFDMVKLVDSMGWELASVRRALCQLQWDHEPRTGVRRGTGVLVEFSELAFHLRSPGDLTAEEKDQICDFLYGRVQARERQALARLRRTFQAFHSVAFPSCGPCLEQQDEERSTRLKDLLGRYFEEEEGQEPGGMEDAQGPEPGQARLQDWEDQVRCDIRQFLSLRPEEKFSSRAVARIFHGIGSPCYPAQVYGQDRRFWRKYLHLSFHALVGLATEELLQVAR

[2] = target: T2, RecQ4 427-1208 K843A/R844A/R848A (Homo sapiens, UniProt O94761 427-1208, K843A;R844A;R848A); test: as above; conditions: protein: recombinant; tags: Trx-His6 removed by 3C protease; label: 5' Cy3
T2 sequence: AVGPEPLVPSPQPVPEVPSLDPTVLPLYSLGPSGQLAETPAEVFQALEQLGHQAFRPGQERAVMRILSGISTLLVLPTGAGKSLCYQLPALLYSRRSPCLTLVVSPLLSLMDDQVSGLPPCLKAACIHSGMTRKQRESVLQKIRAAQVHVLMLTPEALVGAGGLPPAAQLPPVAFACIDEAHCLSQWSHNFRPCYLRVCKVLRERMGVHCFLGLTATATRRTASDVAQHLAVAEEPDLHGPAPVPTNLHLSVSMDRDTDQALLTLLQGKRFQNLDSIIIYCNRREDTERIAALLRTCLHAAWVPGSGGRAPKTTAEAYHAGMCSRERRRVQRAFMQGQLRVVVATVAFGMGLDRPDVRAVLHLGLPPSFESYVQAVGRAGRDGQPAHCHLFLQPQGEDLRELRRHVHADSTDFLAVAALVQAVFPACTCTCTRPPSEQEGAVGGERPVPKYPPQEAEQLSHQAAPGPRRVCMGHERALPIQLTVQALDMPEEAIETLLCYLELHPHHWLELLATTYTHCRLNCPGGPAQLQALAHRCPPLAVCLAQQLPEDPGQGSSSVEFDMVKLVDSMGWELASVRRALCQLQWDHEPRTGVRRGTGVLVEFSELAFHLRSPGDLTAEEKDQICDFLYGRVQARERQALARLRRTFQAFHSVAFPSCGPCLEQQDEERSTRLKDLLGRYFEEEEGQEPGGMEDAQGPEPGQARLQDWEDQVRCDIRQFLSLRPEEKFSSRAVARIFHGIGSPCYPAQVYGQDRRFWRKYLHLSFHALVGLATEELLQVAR

Q: Does CCATTCCACCCTCTATTTTTTTTTTTTTTT (ssDNA) [T3-Cy3] bind [1]?
A: Result: binds

Q: Does CCATTCCACCCTCTATTTTTTTTTTTTTTT (ssDNA) [T3-Cy3] bind [2]?
A: Result: binds
